Test results taken from patent US20240425587A1 (Alector, published 2024).

Key:
[1] = molecular target: T1, human PILRA, c-term His-Avi tag (human, UniProt Q9UKJ1 20-197, limits assumed); assay: SPR (Biacore), antibody captured, PILRA as analyte
T1 construct: not shown: C-terminal His-Avi tag
Method in brief: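 Antibodies were captured at 10 μg/ml on an anti-huFc or anti-msFc CM5 surface, and human PILRA was flowed at 33, 100 and 300 nM in HBSTE/0.5% BSA, pH 7.4. The surface was regenerated with 10 mM glycine-HCl, pH 2.1, after each analyte. Curves were double-referenced with buffer injections.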

[2] = molecular target: T2, PILRA Fc (soluble human PILRA) (human, UniProt Q9UKJ1 20-197, limits assumed); assay: flow cytometry blocking assay, graph 'V1 Blocking_CD3+T Donor 906': antibody mixed with PILRA-Fc, then human CD3+ T cells; bound PILRA-Fc detected with AF647 2nd Ab; blocked partner: PILRA ligand on the T cells
T2 construct: also called soluble PILRA; not shown: Fc part, detected with anti-human IgG
T2 sequence (Q9UKJ1 20-197 limits assumed): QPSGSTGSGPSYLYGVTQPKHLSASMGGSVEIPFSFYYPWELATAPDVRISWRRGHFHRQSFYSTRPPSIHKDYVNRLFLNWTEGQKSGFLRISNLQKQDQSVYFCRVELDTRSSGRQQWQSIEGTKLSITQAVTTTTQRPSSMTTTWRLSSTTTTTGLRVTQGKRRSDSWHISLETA
Method: The ability of conditioned media samples containing antibodies to inhibit the binding of PILRA Fc to human CD3+ T cells was assessed. Briefly, conditioned media samples containing antibodies were incubated with 1.25 ug/ml PILRA Fc for 30 min at 4° C. and then added to human T cells. After 30 minutes incubation at 4° C., cells were washed, and bound PILRA Fc was detected with anti-human IgG Alexa 647. Cells were analyzed by flow cytometry on FACS Canto II, and for all cell lines, the amount of PILRA Fc binding (MIFI) and the percentage of PILRA Fc binding in the presence of conditioned media relative to PILRA Fc binding alone was calculated. Several antibodies inhibited binding of PILRA Fc to human T cells, and a few antibodies enhanced PILRA-Fc binding to T cells. Antibodies that show enhancement in this assay may block cis inhibition to promote trans interactions or may allosterically activate to enhance trans interactions without blocking cis.

[3] = molecular target: cynomolgus PILRA, ectopically expressed on 293 cells (cynomolgus monkey); assay: screening summary, TCP groups
Sequence of cynomolgus PILRA, ectopically expressed on 293 cells (cynomolgus monkey) (chain, as listed by the source): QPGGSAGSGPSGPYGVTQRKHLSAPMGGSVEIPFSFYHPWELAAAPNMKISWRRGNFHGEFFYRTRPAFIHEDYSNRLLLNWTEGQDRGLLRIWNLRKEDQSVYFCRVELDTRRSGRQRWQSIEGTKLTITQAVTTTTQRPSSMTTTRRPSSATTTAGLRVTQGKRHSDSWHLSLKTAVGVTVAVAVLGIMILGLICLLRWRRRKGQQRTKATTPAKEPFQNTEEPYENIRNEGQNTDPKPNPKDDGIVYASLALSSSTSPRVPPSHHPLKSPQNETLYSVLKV

[4] = molecular target: T3, human PILRA, G78 variant, ectopically expressed on 293 cells (human, UniProt Q9UKJ1 20-303); assay: screening summary, TCP groups
T3 construct: the cells are labelled G78; also called hA G78 OE; hA
T3 sequence (Q9UKJ1 other isoform, or with tags, fused parts or gaps mutant): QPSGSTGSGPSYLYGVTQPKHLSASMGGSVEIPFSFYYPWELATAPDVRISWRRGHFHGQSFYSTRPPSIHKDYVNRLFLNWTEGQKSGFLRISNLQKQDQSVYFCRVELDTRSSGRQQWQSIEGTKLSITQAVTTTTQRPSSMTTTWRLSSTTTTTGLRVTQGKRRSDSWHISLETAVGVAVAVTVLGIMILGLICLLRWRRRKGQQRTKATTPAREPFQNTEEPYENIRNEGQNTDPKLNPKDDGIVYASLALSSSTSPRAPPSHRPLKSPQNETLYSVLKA

T1 sequence (Q9UKJ1 20-197 limits assumed): as the sequence (Q9UKJ1 20-197 limits assumed) above

Row | Binder | Kd [1] | koff [1] | kon [1] | t½ [1] | IC50 (read off the curve) [2] | binding result [3] | binding result [1] | binding result [4]
1 | hPA-002 (antibody, V domains shown) VH: QVTLQESGPGILQPSQTLSLTCSFSGFSLSTFGMGVGWIRQPSGKGLEWLAHIWWDDDKYYNPALKSRLTISKDTSKNQVFLKIASVDTADIATYYCARVEDYGNPFDYWGQGTTL VL: DIQMNQSPSSLSASLGDTITITCHASQNIHVWLNWYQQKPGNIPKLLIYKASNLHTGVPSRFSGSGSGTGFTVTISSLQPEDIATYYCQQGQSYPLTFGAGTKLELK | 23.4 nM | 0.0052 s⁻¹ | 220000 M⁻¹ s⁻¹ | 2.2 min | ~1 mg/L | – | – | –
2 | B3 (antibody, V domains shown, B-cell cloning campaign (mice)) VH: EVKLVESGGGLVKPGGSLKLSCTASGFTFSNYAMSWVRQTPEKRLEWVASISGGGSTYYPDSVKGRFTIAIDYARNILYLQMSSLRSEDTAIYFCTRGVSYGDYAMDYWGQGTSVTVSS VL: ETTVTQSPASLSMAIGEKVTIRCVTSTDIDDDMNWYQQKPGGPPKLLISEGNTLRPGVPSRFSSSGYGSDFVFTIEDMLSEDVADYYCLQSDNLPLTFGAGTKVELK | – | – | – | – | – | binds | no binding (tested: 33, 100, and 300 nM) | –
3 | B4 (antibody, V domains shown, B-cell cloning campaign (mice)) VH: EVKLVESGGGLVKPGGSLKLSCTASGFTFSNYAMSWVRQTPEKRLEWVASISGGGSTYYPDSVKGRFTIAIDYARNILYLQMSSLRSEDTAIYYCTRGVSYGDYAMDYWGQGTSVTVSS VL: ETTVTQSPASLSMAIGEKVTIRCVTSTDIDDDMNWYQQKPGGPPKLLISEGNTLRPGVPSRFSSSGYGSDFVFTIEDMLSEDVADYYCLQSDNLPLTFGAGTKVELK | 88.3 nM | 0.00054 s⁻¹ | 6100 M⁻¹ s⁻¹ | 21.4 min | – | binds | – | –
4 | D9 (antibody, V domains shown, second hybridoma campaign) VH: QVQLKESGPGLVAPSQSLSITCSVSGFSLSSYAINWVREPPGKGLEWLGVIWTGGGTNYNSALKSRLSISKDNSKSQVFLKMNSLQTDDTARYYCARNSIYYDYDGFAYWGQGTLVTVSA VL: DIQMTQSSSYLSVSLGGRVTITCKASDHINNWLAWYQQKPGNAPRLLISGATSLETGVPSRFSGSGSGKDYTLSITSLQTEDFTTYYCQQYWSTPYTFGGGTKLEIK | – | – | – | – | – | – | – | binds

More lines, in order of falling Kd [1], values ahead:

Row | Kd [1] | koff [1] | kon [1] | t½ [1] | IC50 (read off the curve) [2] | binding result [3] | binding result [1] | binding result [4] | Binder
5 | 9 nM | 0.0011 s⁻¹ | 130000 M⁻¹ s⁻¹ | 10.1 min | ~3 mg/L | – | – | – | hPA-004 (antibody, V domains shown) VH: QVTLKESGPGMLQPSQTLSLACSFSGFSLNSFGVAVGWIRQPSGKGLEWLAHIWWDDDKSYNPALKSRLTISKDTSKNQVFLKLANVDTADTATYYCTRIADYGNHFDYWGQGTALTVSS VL: DIQMNQSPSSLSASLGDTITITCHASQNSHVWLSWYQQKPGNIPKLLIYKASNLHTGVPSRFSGSGSGTGFTLTISGLQPEDIATYYCQQGQTYPFTFGSGTKLEIK
6 | 8.3 nM | 0.0042 s⁻¹ | 510000 M⁻¹ s⁻¹ | 2.7 min | – | binds | – | – | C3 (antibody, V domains shown, first hybridoma campaign) VH: EVHLQQSGPELVKPGASVKISCKASGYTFTDYYLNWVKLSLGKSLEWIGDINPNDGDTSYNQTFKGKATLTVDKSSSTAYMELRSLTSEDSAVYYCARRASSYYSNYGWYFDVWGTGTTVTVSS VL: DILLTQSPAILSVSPGERVSFSCRASQSIGTSIHWYQQRTNGSPRLLIKFASESISGIPSRFSGSGSGTDFTLSINTVESEDIGDYYCQESNSWPTTFGAGTKLELK
7 | 7 nM | 0.0015 s⁻¹ | 210000 M⁻¹ s⁻¹ | 7.9 min | ~3 mg/L | – | – | – | hPA-005 (antibody, V domains shown) VH: QVILKESGPGILQSSQTLSLTCSFSGFSLSTFGMGVGWIRQPSGKGLESLAHIWWDDDKFYNPALKSRLTISKDTSKSQVFLKIANVDTADIATYYCTRIEDYGSYFAYWGQGTTLTVSS VL: DVQMNQSPSSLSASLGDPITITCHASQNIHVWLNWYQQRPGNIPRLLIYKASNLHTGVPSRFSGSGSGTGFTLTISSLQPEDIATYYCQQGQSYPYTFGGGTKLEIK
